# From article PMC9671094
# What was measured:
# [1] = target: PG9.HCDR3.1MUT (human); test: SPR; IgG captured as ligand by anti-human IgG (Human Antibody Capture Kit) on a GLC chip, ProteOn XPR36; trimer as analyte; 1x HBS-EP+ pH 7.4 with 1 mg/ml BSA; 1:1 binding model; highest SOSIP concentration 5 uM or 10 uM
# [2] = target: PG16.iGL (human); test: as above
# [3] = target: PCT64.iGL (human); test: as above
# [4] = target: PG9 (human); test: as above
# [5] = target: PG16 (human); test: as above
# [6] = target: PG16.VHVL (human); test: as above
# [7] = target: PG9.iGL.1MUT (human); test: as above
# [8] = target: PG9.VHVL (human); test: as above
# [9] = target: PG16.HCDR3 + 1MUT (human); test: as above
# [10] = target: ApexGT2.2MUT trimer (HIV-1 isolate BG505); test: cryo-EM structure
Substance,Kd [1] [nM],Kd [2] [nM],Kd [3] [nM],Kd [4] [nM],Kd [5] [nM],Kd [6] [nM],Kd [7] [nM],Kd [8] [nM],Kd [9] [nM],stoichiometry N (Fab per trimer) [10]
BG505 SOSIP.D664 (complex),317,> 5000,> 5000,15.8,38,1000,645,72,273,–
PCT64 LMCA Fab,–,–,–,–,–,–,–,–,–,1
